Positions count from the first letter of the chain named. Names and notes keep the numbering of the source.
B1: EcGhrA (Escherichia coli K-12; W45F) (protein)
chain: MDIIFYHPTFDTQWWIEALRKAIPQARVRAWKSGDNDSADYALVFHPPVEMLAGRDLKAVFALGAGVDSILSKLQAHPEMLNPSVPLFRLEDTGMGEQMQEYAVSQVLHWFRRFDDYRIQQNSSHWQPLPEYHREDFTIGILGAGVLGSKVAQSLQTWRFPLRCWSRTRKSWPGVQSFAGREELSAFLSQCRVLINLLPNTPETVGIINQQLLEKLPDGAYLLNLARGVHVVEDDLLAALDSGKVKGAMLDVFNREPLPPESPLWQHPRVTITPHVAAITRPAEAVEYISRTIAQLEKGERVCGQVDRARGY
B2: EcGhrA (Escherichia coli K-12) (protein)
chain: B1 chain with F45W

How the values were obtained:
Assay in all cases: purified protein
Conditions in all cases: 200 µM NADPH, 50 mM HEPES, pH 7.5, 22 °C
[1] = substrate: O=CC(=O)O; format: biochemical, Escherichia coli
[2] = substrate: O=C(O)CC(=O)C(=O)O
[3] = substrate: O=C(O)CCC(=O)C(=O)O
[4] = substrate: N=C(N)NCCCC(=O)C(=O)O
[5] = substrate: O=CC(=O)O

Row | Protein | Km [1] | kcat [1] | Km [2] | kcat [2] | Km [3] | kcat [3] | Km [4] | kcat [4] | Km [5] | kcat [5]
1 | B1 | 10.8 ± 6.1 mM | 120.0 ± 63.0 s⁻¹ | 6.3 ± 0.2 mM | 1.8 ± 0.04 s⁻¹ | 11.5 ± 0.8 mM | 0.26 ± 0.01 s⁻¹ | 43.2 ± 8.4 mM | 4.0 ± 0.7 s⁻¹ | – | –
2 | B2 | – | – | 1.3 ± 0.2 mM | 1.9 ± 0.1 s⁻¹ | 4.0 ± 0.4 mM | 0.30 ± 0.02 s⁻¹ | 8.8 ± 0.8 mM | 6.6 ± 0.4 s⁻¹ | 2.2 ± 1.7 mM | 40.0 ± 23.0 s⁻¹

Source: article doi:10.1101/2022.04.02.486822v1
